Measurements reported in publication PMC6165545.

Target: growth hormone secretagogue receptor-type 1a tagged with enhanced green fluorescent protein (GHSR-1a-EGFP), stably expressed in HEK293A cells (UniProt Q92847)
Sequence of UniProt Q92847 (Q92847 whole entry): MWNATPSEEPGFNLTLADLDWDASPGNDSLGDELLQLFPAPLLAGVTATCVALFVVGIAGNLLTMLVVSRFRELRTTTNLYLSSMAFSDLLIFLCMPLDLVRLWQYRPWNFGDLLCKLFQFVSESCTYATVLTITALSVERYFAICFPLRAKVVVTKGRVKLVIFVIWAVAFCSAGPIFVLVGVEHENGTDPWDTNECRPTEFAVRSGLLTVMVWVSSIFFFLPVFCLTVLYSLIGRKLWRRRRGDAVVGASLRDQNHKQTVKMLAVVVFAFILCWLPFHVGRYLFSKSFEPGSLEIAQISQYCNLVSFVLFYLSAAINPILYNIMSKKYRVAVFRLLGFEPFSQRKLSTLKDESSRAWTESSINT

intracellular Ca2+ mobilisation in HEK293A cells stably expressing GHSR-1a-EGFP, EC50 [mg/mL]	intracellular Ca2+ mobilisation in HEK293A cells stably expressing GHSR-1a-EGFP, Emax as percentage of the control (3.3% FBS) [%]	Substance
0.27	149	casein-derived hydrolysate (CasHyd)
–	132	ghrelin (rat) (peptide)
